Measurements as given in patent publication US12077566B2, “Mutants of recombinant immunoregulatory protein of Ganoderma lucidum and applications thereof” (priority 2017, dated 2024).

What was measured:
[1] = biological target: EGFR extracellular domain (Homo sapiens, UniProt P00533); assay: Affinity test by surface plasmon resonance (Biacore T200, CM5 chip); format: binding; details: for Affinity with the EGFR (in words): compared with rLZ-8
Procedure: The Biacore™ T200 equipment (a Surface Plasmon Resonance from GE Company) is selected. Through the surface plasma resonance technology, the affinity of the rLZ-8 and the mutants thereof to the EGFR extracellular domain is tested. The CM5 chip is adopted to serve as the affinity test chip.
The EGFR extracellular domain (with an amino acid sequence of 25-645) serves as the ligand for coupling; 1 mg EGFR freeze-dried powders are diluted with HEPES buffer solution to a concentration of 400 μg/mL and set aside. Three 1.5 mL EP tubes are prepared; 10 μL ligand are respectively added into the three tubes, then 90 μL 10 mM sodium acetate with different pH values of 4.5, 5.0 and 5.5 are respectively added into the tubes and are mixed completely and uniformly; and a final concentration of the ligand is 40 μg/mL. Moreover, 200 μL 50 mM sodium acetate is added into another 1.5 mL EP tube.
The ligand has a molecular weight of 70 kDa, the analyte (rLZ-8) has a molecular weight of 12.4 kDa. In theory, one rLZ-8 […] can bind with one EGFR, and thus the stoichiometric ratio Sm is equal to 1. Through the following equations, the coupling amount RL of the ligand is calculated.
Through the experimental experience, the optimal reagent coupling amount is set to be 3*RL, and the coupling amount is set to be 1700 RU. The EGFR extracellular domain is successively coupled on the CM5 chip.
In the affinity test, in order to eliminate the influence of different concentrations on the affinity, every of the rLZ-8 and the mutants thereof are tested with eight concentrations, wherein: seven concentrations are gradient concentrations, and the last one is the test reference concentration.

[2] = tested on: human liver cancer Hep G2 cells
Description: Two weeks later, the model mice are divided into groups randomly, and each group has 10 mice. The administration method is caudal vein injection, once a day, for consecutive 28 days (qd×28, i.v.). […] During the experiment, if the mouse dies, the dead mouse is weighted on the same day, and the tumor tissue is taken out to be weighted. For the living mouse after administration for 28 days, the mouse is killed, and then the tumor tissue is taken out to be weighted. The death time and death number of the mice in each group are recorded in detail; the survival conditions of the mice of the experimental groups and the control groups are analyzed, and the survival rate is calculated, wherein the survival rate is obtained through subtracting the death number of the mice from the total number of the mice, and then dividing the difference by the total number of the mice.

[3] = tested on: human breast cancer MCF7 cells; assay: Orthotopic transplantation tumor model of human breast cancer MCF7 cells; format: in vivo, BALB/c nude mice; details: after administration for 28 days
Procedure: One day before the experiment, 0.5 mg of 17ß estradiol sustained release tablet is embedded below the neck skin of the BALB/c nude mice.

[4] = tested on: human colon cancer SW480 cells; assay: Transplantation tumor model of human colon cancer SW480 cells; format: in vivo, BALB/c nude mice; details: after administration for 28 days
Procedure: The RPMI1640 medium containing 10% fetal bovine serum is selected for the human colon cancer SW480 cells, and then is placed in the CO2 constant-temperature incubator at 37° C. for culturing. The SW480 cells at the logarithmic phase are digested by pancreatin and thereafter washed with serum-free RPMI1640 medium; 2×10^6 cells are inoculated below the back skin of the BALB/c nude mice; after the tumor blocks for observation are formed and have the diameter larger than 0.5 cm, the mice are divided into groups randomly; and the transplantation tumor model of human colon cancer SW480 cells are constructed in the BALB/c nude mice.

[5] = tested on: liver cancer, lung cancer, breast cancer and colon cancer; assay: Animal pharmacodynamic experiments of liver, lung, breast and colon cancer (summary statement); format: in vivo, mice; details: breast and colon cancer models together
[6] = tested on: Hep G2 cytomembrane; assay: In vitro cellular activity: binding with Hep G2 cytomembrane and entering the cell; format: cell-based; details: 100 μg/mL
[7] = tested on: human lung cancer A549 cells; assay: Orthotopic transplantation tumor model of human lung cancer A549 cells; details: after administration for 28 days;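 also: test animals were NOG mice aged 6-8 weeks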
Procedure: The human lung cancer A549 cell strain is selected. The NOG Mice of 6-8 weeks old are selected.
The DMEM containing 10% fetal bovine serum is selected for the human lung cancer A549 cells, and then is placed in the CO2 constant-temperature incubator at 37° C. for culturing. The A549 cells at the logarithmic phase are digested by pancreatin and thereafter washed with serum-free DMEM; the living cell concentration is adjusted to 1×10^8 cells per milliliter; 20 μL cell suspension is taken and inoculated at the lung of the NOG mice; two weeks later, the orthotopic transplantation tumor model of A549 lung cancer cells is constructed in the NOG mice.

[8] = EGFR extracellular domain coupled on CM5 chip, analyte 4-256 nM

B1: rLZ-8 (K16A/S18A/K41A/D45A): alanine mutant of rLZ-8 at K16, S18, K41 and D45 (protein)
chain: MSDTALIFRLAWDVKALAFDYTPNWGRGNPNNFIDTVTFPAVLTAKAYTYRVAVSGRNLGVKPSYAVESDGSQKVNFLEYNSGYGIADTNTIQVFVVDPDTNNDFIIAQWN
What does the source list for B1?
Dissociation rate constant (koff) [1, 8]: 0.00423 s⁻¹; Ka [1, 8]: 139 M⁻¹ s⁻¹; Affinity with the EGFR (in words) [1]: obviously decreased by 2-3 orders of magnitudes; Affinity with the EGFR (in words) ([1]; listed as rLZ-8 (K16A/S18A/K41 A/D45A)): obviously decreased affinity; Tumor inhibitory effect (in words) ([2]; after administration for 28 days): nearly no tumor inhibitory effect; Mice weight after experiment ([2]; mouse, in vivo): 17.3 ± 1.5 g; Mice tumor weight after experiment ([2]; qd×28 i.v., rLZ-8 and mutants 0.5 mg/kg, sorafenib 50 mg/kg): 1.62 ± 0.72 g; Survival rate of mice after experiment ([2]; qd×28 i.v., rLZ-8 and mutants 0.5 mg/kg, sorafenib 50 mg/kg, 10 mice per group): 30%; Mice tumor weight after experiment [3]: 1.02 ± 0.33 g; Tumor inhibitory effect (in words) [3]: nearly no tumor inhibitory effect; Mice tumor weight after experiment [4]: 3.12 ± 0.54 g; Tumor inhibitory effect (in words) [4]: nearly no tumor inhibitory effect; Tumor inhibitory effect (in words) [5]: nearly no tumor inhibitory effect; Binding with the Hep G2 cytomembrane and entering the cell (in words) [6]: little binding amount with the Hep G2 cytomembrane and nearly cannot be observed to enter the cell; Mice survival rate after experiment [7]: 10%; Mice tumor weight after experiment [7]: 1.22 ± 0.83 g; Mice weight after experiment [7]: 17.6 ± 1.4 g; Tumor inhibitory effect (in words) [7]: nearly no tumor inhibitory effect
